Among the data in PMC4425688 are Km and kcat values, retold here.

Substrate in the series: Nc1ccn([C@@H]2O[C@H](COP(=O)(O)OP(=O)(O)OP(=O)(O)O)[C@@H](O)[C@H]2O)c(=O)n1
The series is described as follows: purified protein. Type of series: biochemical, Bacteroides thetaiotaomicron. As to conditions: 6 mM KDN, 10 mM MgCl2, Tris pH 7.5, 25 °C.

B1: BT1715 (Bacteroides thetaiotaomicron VPI-5482) (protein)
chain: MNYAFVVQARLGSTRLPGKILKPFYGNQSILDLMVHKLSAISNIPVIIATTNSVINEPIEKKALALGVKCFRGEENDVLKRFIDVAEYFDIQGIFRICSDNPFLDVHAARQLVEIAMKSCNDYISFDIDGTPSIKTHFGFWGEFVTLDALKRVIGFTDDLLYREHVTNYIYSHPELFNIQWISGSPVVSKHHNIRLTIDTLEDFSVAQRIYRDLQEKRVEISIEVIVDYVRRHAEYIQLMKQQIKKNSK
A word on the Km: it is the substrate concentration at which the rate is half of its maximum. Usually kcat stands for the maximal rate divided by the concentration of active sites. As for B1, the Km worked out at 510 ± 30 µM and the kcat amounted to 0.017 ± 0.0005 s⁻¹.
